Source: US20100222280A1 (PROYECTO DE BIOMEDICINA CIMA S L, published 2010)

Columns and labels:
TGF-β1 (Roche) [1] = assay: cell-based or functional assay
[2] = target: TGF-β1 raised in mice by acute liver damage (CCl4) (mouse, UniProt P04202 279-390, limits assumed); assay: cell-based or functional assay
biotinylated TGF-β1 = biotinylated TGF-β1 (Homo sapiens (Human), UniProt P01137 279-390, Biotinylated (site or sites not stated) for capture on streptavidin plates. The active cytokine is a disulfide-linked 25 kDa homodimer; one subunit is given.); assay: phage display biopanning on biotinylated TGF-β1 on streptavidin plates; clones among 108 colonies after 3 cycles
TGF-β1 (Roche) [3] = assay: cell-based or functional assay; remark: listed apart in the source

Sequence of TGF-β1 raised in mice by acute liver damage (CCl4) (P04202 279-390 limits assumed): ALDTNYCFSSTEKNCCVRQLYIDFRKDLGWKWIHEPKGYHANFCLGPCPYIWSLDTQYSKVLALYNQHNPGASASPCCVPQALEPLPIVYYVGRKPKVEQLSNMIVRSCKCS
Sequence of TGF-β1 (Roche) (P01137 279-390): as the sequence (P04202 279-390 limits assumed) above, with S75A counted along it
Sequence of biotinylated TGF-β1 (P01137 279-390 limits assumed, form in doubt): as the sequence (P04202 279-390 limits assumed) above, with S75A counted along it

| Binder | % Inhibition (Mv-1-Lu cell line growth reestablishment, 3H-thymidine) (TGF-β1 (Roche) [1]) | % Inhibition (type I collagen mRNA induction, acute liver damage model in mice) [2] | No. colonies (biotinylated TGF-β1) | % Inhibition (Mv-1-Lu cell line growth reestablishment) (TGF-β1 (Roche) [3]) |
| --- | --- | --- | --- | --- |
| DRRIFWWSLRSAPGA (15-aa peptide) [peptide identified by SEQ ID NO: 1] | 3.33% | 0.69% | 6 colonies | – |
| DRRIFWWSNRSAPGA (15-aa peptide) [peptide identified by SEQ ID NO: 2] | -0.96% | 36.6% | 1 colonies | – |
| FVWVRFHRLPRQIYT (15-aa peptide) [peptide identified by SEQ ID NO: 10] | -4.58% | – | 1 colonies | – |
| WHKYFLRRPLSVRTR (15-aa peptide) [peptide identified by SEQ ID NO: 11] | 27.4% | 39.3% | 4 colonies | – |
| WHKYFLRRPLSVGLG (15-aa peptide) [peptide identified by SEQ ID NO: 12] | 10.7% | – | 1 colonies | – |
| RKWFLQHRRMPVSVL (15-aa peptide) [peptide identified by SEQ ID NO: 13] | 18% | 32.7% | 6 colonies | – |
| SGRRHLHRHHIFSLP (15-aa peptide) [peptide identified by SEQ ID NO: 14] | 3.62% | 49.8% | 2 colonies | – |
| GWITFHRRHHDRVLS (15-aa peptide) [peptide identified by SEQ ID NO: 15] | 13.4% | 14.3% | 1 colonies | – |
| RLHGHRSHRFTHVAQ (15-aa peptide) [peptide identified by SEQ ID NO: 16] | 9.47% | – | 1 colonies | – |
| KRIWFIPRSSWYERA (15-aa peptide) [TGF-β1 inhibitor peptide P17 (SEQ ID NO: 17)] | 38.9% | 93.1% | 3 colonies | 28.5% |
| MPLSRYWWLFSHRPR (15-aa peptide) [peptide identified by SEQ ID NO: 18] | 21.3% | – | 1 colonies | – |
| RHLSHFKWLRSHGLD (15-aa peptide) [peptide identified by SEQ ID NO: 19] | 9.71% | 12.1% | 1 colonies | – |
| RRFHFHSRMVAVDNS (15-aa peptide) [peptide identified by SEQ ID NO: 20] | 6.16% | 1.41% | 1 colonies | – |
| HVRLHHYLRHRSLPN (15-aa peptide) [peptide identified by SEQ ID NO: 21] | 13.4% | – | 1 colonies | – |
| VPMALNHGVYVMVSS (15-aa peptide) [peptide identified by SEQ ID NO: 22] | 4.13% | – | 1 colonies | – |
| TSLDASIIWAMMQN [peptide identified as P144 in the Spanish patent application ES 2146552 A1 (SEQ ID NO: 51)] | 7.26% | -3.51% | – | – |
| RFFTRFPWHYHASRL (15-aa peptide) [peptide identified by SEQ ID NO: 3] | 25.4% | 2.09% | 41 colonies | – |
| RLAHSHRHRSHVALT (15-aa peptide) [peptide identified by SEQ ID NO: 4] | 5.53% | 51.3% | 18 colonies | – |

| Binder | % Inhibition (Mv-1-Lu cell line growth reestablishment, 3H-thymidine) (TGF-β1 (Roche) [1]) | % Inhibition (type I collagen mRNA induction, acute liver damage model in mice) [2] | No. colonies (biotinylated TGF-β1) | % Inhibition (Mv-1-Lu cell line growth reestablishment) (TGF-β1 (Roche) [3]) |
| --- | --- | --- | --- | --- |
| PPYHRFWRGHRHAVQ (15-aa peptide) [peptide identified by SEQ ID NO: 6] | 12.8% | 74.9% | 12 colonies | – |
| GWHSLLHSRYHRLAA (15-aa peptide) [peptide identified by SEQ ID NO: 9] | 4.98% | 26.6% | 1 colonies | – |
| RIWFIPRSSWYERA [truncated peptide SEQ ID NO: 24 (T1)] | – | – | – | 9.4% |
| RIWFIPRSSWYER [truncated peptide SEQ ID NO: 25 (T2)] | – | – | – | 6.2% |
| RRWVRYPVHLHSPIV (15-aa peptide) [peptide identified by SEQ ID NO: 5] | 15.8% | – | 1 colonies | – |
| IWFIPRSSWYERA [truncated peptide SEQ ID NO: 26 (T3)] | – | – | – | 4.5% |
| IWFIPRSSWYE [truncated peptide SEQ ID NO: 27 (T4)] | – | – | – | 1.4% |
| WFIPRSSWY [truncated peptide SEQ ID NO: 28 (T5)] | – | – | – | 3.1% |
| WFIPRSSWYERA [truncated peptide SEQ ID NO: 29 (T6)] | – | – | – | 2.7% |
| FIPRSSWYERA [truncated peptide SEQ ID NO: 30 (T7)] | – | – | – | -0.3% |
| IPRSSWYERA [truncated peptide SEQ ID NO: 31 (T8)] | – | – | – | 3.4% |
| PRSSWYERA [truncated peptide SEQ ID NO: 32 (T9)] | – | – | – | 3.8% |
| KRIWFIPRSSWYER [truncated peptide SEQ ID NO: 33 (T10)] | – | – | – | 31.4% |
| KRIWFIPRSSWY [truncated peptide SEQ ID NO: 34 (T11)] | – | – | – | 34.4% |
| KRIWFIPRSS [truncated peptide SEQ ID NO: 35 (T12)] | – | – | – | 6% |
| KRIWFIPRS [truncated peptide SEQ ID NO: 36 (T13)] | – | – | – | 6.2% |
| HRISHFAHRYLARLH (15-aa peptide) [peptide identified by SEQ ID NO: 7] | -25% | – | 2 colonies | – |
| WHWRHRIPLQLAAGR (15-aa peptide) [peptide identified by SEQ ID NO: 8] | 15.7% | – | 2 colonies | – |
